This is an account of results in paper PMC1794554, “Multiplatform genome-wide identification and modeling of functional human estrogen receptor binding sites”.

Common to all, as to settings: chain copies: 2; label: 5'-biotin on the ERE strand; blunt
For data set [1], the target named is T1, estrogen receptor alpha (ERα), purified (UniProt P03372 1-595). Description: SPR; SPR: 40 mM HEPES-KOH pH 7.4, 10 mM MgCl2, 200 mM KCl, 0.2% Triton X-100, 2 mM DTT, room temperature; ERα 58-708 nM (relative binding averaged over concentrations). (In general: SPR reads the build-up and loss of mass on a sensor chip optically.)
T1 sequence (P03372 whole entry): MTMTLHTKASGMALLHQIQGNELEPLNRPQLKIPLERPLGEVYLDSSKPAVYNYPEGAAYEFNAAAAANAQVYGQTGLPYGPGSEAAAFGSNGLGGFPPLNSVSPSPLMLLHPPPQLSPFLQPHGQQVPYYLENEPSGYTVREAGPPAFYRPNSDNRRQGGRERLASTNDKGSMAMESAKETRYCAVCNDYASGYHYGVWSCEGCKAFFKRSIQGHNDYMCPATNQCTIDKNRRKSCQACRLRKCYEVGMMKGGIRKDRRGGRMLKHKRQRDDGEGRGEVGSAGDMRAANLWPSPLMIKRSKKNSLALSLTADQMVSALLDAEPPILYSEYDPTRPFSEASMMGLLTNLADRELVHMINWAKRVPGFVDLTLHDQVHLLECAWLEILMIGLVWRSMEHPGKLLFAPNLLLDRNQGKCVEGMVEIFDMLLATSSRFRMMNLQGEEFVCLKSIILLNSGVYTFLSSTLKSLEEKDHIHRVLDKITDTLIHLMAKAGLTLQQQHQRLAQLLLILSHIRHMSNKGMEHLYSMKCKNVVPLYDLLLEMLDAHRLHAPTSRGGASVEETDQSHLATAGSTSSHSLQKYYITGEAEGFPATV
Data set [2] concerns the target T1, estrogen receptor alpha (ERα), purified. The data set is described as follows: SPR; not significantly perturbed; SPR: 40 mM HEPES-KOH pH 7.4, 10 mM MgCl2, 200 mM KCl, 0.2% Triton X-100, 2 mM DTT, room temperature; ERα 58-708 nM (relative binding averaged over concentrations).
Data set [3] has the same target. Description: SPR; binding disrupted by about 40%; SPR: 40 mM HEPES-KOH pH 7.4, 10 mM MgCl2, 200 mM KCl, 0.2% Triton X-100, 2 mM DTT, room temperature; ERα 58-708 nM (relative binding averaged over concentrations).

B1: GREB1 ERE wildtype (dsDNA)
DNA 1: TGTGGCAACTGGGTCATTCTGACCTAGAAGCAAC
DNA 2: GTTGCTTCTAGGTCAGAATGACCCAGTTGCCACA
In the case of B1, in data set [1], the binding signal was 100 % of wild type.

B2: mutant 4 (outside the 3-bp flank, C to G) (dsDNA)
DNA 1: TGTGGGAACTGGGTCATTCTGACCTAGAAGCAAC
DNA 2: GTTGCTTCTAGGTCAGAATGACCCAGTTCCCACA
With B2, the binding result in data set [2] is reported as “binds”.

B3: mutant 1 (conserved 3' G to A) (dsDNA)
DNA 1: TGTGGCAACTGGGTCATTCTGACCTAAAAGCAAC
DNA 2: GTTGCTTTTAGGTCAGAATGACCCAGTTGCCACA
As for B3, the binding signal in data set [3] was ~60 % of wild type.
